We go through one substance from article PMC10357528.

In this test the target is SARS-CoV-2 receptor-binding domain, wild-type (SARS-CoV-2) (UniProt P0DTC2). In words: AlphaScreen or HTRF. A general note: Alpha assays give light when donor and acceptor beads are brought close together.

The substance “SARS-CoV-2 receptor-binding domain, wild-type (from UniProt P0DTC2 319-541) (domain or fragment)” registered an AlphaLISA signal of 29000 CPS.
